According to paper PMC8062786:

Molecular target: wild-type SARS-CoV 3CL protease (mature enzyme), as used for analytical ultracentrifugation (SARS-CoV)
Test: AUC

In the case of “wild-type SARS-CoV 3CL protease (mature enzyme), as used for analytical ultracentrifugation”, the Kd is reported as 0.35 nM.
